Experimental findings from US20180134765A1 (AVIDBIOTICS, published 2018) are described below.

Experiment [1] has as its target T1, OMCP-α3-iFv.2.
T1 construct: also called NKG2DL-α3-iFv.2 (OMCP)
Nature of the experiment: ELISA: protein captured on FGFR3 detected with NKG2D-Fc. On the technique in general: An ELISA detects its analyte on a solid surface through an enzyme-linked reagent.

Experiment [2] deals with T2, MICB-Fc (UniProt Q29980 23-298).
T2 construct: Bought, R&D Systems; not shown: Fc part of the bought reagent
T2 sequence (looked up): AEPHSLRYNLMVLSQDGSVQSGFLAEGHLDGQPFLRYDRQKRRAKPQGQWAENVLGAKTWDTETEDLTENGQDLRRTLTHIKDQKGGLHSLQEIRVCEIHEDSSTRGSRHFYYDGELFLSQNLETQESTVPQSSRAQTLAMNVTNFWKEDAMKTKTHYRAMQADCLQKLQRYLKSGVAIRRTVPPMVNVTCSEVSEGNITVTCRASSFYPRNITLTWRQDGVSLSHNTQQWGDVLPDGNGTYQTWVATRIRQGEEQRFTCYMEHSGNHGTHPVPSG
The experiment can be described thus: ELISA: ligand-Fc coated at 2 ug/ml, biotinylated NKG2D ectodomain titrated, streptavidin-HRP.

In experiment [3] the target is T3, ULBP2-Fc (UniProt Q9BZM5 26-217).
T3 construct: Bought, R&D Systems; not shown: Fc part of the bought reagent
T3 sequence (looked up): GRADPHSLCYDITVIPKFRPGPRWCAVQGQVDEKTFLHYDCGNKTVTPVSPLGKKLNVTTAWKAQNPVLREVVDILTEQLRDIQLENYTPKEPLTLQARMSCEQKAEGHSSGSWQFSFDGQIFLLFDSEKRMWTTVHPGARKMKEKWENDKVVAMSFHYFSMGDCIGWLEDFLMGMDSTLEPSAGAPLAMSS
The experiment is described as above.

In experiment [4] the target is T4, ULBP1-Fc (UniProt Q9BZM6 26-216).
T4 construct: Bought, R&D Systems; not shown: Fc part of the bought reagent
T4 sequence (looked up): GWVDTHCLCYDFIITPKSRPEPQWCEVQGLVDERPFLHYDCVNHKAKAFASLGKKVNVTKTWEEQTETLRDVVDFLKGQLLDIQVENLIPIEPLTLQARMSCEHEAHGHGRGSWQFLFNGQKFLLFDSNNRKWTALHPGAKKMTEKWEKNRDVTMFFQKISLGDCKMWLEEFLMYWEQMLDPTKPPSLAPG
The description is as above.

In experiment [5] the target is MICwed-Fc. Described as above.
In experiment [6] the target is T5, ULBP3-Fc (UniProt Q9BZM4 30-217).
T5 construct: Bought, R&D Systems; not shown: Fc part of the bought reagent
T5 sequence (looked up): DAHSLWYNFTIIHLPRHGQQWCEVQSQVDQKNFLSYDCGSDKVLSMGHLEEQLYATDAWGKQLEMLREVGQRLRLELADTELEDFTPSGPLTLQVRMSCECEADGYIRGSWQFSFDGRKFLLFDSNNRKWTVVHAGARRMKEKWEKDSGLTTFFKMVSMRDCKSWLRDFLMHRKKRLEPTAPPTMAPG
Described as above.

Experiment [7] has as its target T6, ULBP4-Fc (UniProt Q8TD07 31-225).
T6 construct: Bought, R&D Systems; not shown: Fc part of the bought reagent
T6 sequence (looked up): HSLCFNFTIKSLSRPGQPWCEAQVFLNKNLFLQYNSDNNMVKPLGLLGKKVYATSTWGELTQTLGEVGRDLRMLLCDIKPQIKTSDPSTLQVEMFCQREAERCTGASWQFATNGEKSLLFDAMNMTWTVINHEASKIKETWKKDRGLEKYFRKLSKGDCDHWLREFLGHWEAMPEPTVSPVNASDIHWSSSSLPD
Nature of the experiment: plate ELISA: biotinylated natural NKG2D ectodomain titrated on coated ligand-Fc.

Experiment [8] addresses T2, MICB-Fc. Nature of the experiment: ELISA: ligand-Fc coated at 2 ug/ml, biotinylated NKG2D Y199A ectodomain titrated, streptavidin-HRP.
Experiment [9] addresses T3, ULBP2-Fc. The experiment is described as above.
In experiment [10] the target is T4, ULBP1-Fc. Described as above.
Experiment [11] deals with T7, MICv25-Fc.
T7 construct: also called MIC-v25 α1-α2 domain ligand
The description is as above.

The target in experiment [12] is T6, ULBP4-Fc. The description is as above.
Experiment [13] deals with MICwed-Fc. The experiment is described as above.
For experiment [14], the target named is T5, ULBP3-Fc. Described as above.
Experiment [15] has as its target T8, MICA-Fc.
T8 construct: also called natural α1-α2-α3-Fc fusion
T8 chain: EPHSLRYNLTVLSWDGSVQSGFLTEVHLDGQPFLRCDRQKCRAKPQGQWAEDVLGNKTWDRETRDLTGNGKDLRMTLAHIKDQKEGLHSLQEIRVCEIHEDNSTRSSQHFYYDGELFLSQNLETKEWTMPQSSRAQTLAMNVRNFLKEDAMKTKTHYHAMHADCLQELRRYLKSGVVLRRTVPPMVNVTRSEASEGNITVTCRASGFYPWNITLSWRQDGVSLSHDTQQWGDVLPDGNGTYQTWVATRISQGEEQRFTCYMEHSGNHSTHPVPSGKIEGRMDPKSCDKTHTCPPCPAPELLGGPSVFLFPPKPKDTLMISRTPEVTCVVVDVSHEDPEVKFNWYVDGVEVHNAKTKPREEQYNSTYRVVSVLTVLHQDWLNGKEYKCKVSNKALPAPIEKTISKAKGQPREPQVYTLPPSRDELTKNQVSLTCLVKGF
The description is as above.

The target in experiment [16] is T2, MICB-Fc. The experiment can be described thus: ELISA: ligand-Fc coated at 2 ug/ml, biotinylated NKG2D Y152A, Y199A ectodomain titrated, streptavidin-HRP.
Experiment [17] addresses T3, ULBP2-Fc. The description is as above.
For experiment [18], the target named is T4, ULBP1-Fc. The experiment is described as above.
Experiment [19] deals with T7, MICv25-Fc. The description is as above.
The target of experiment [20] is T6, ULBP4-Fc. The description is as above.
Experiment [21] deals with MICwed-Fc. The description is as above.
The target of experiment [22] is T5, ULBP3-Fc. The experiment is described as above.
The target of experiment [23] is T8, MICA-Fc. The experiment is described as above.
Experiment [24] has as its target T2, MICB-Fc. Nature of the experiment: ELISA: ligand-Fc coated at 2 ug/ml, biotinylated NKG2D Y152A ectodomain titrated, streptavidin-HRP.
Experiment [25] deals with T3, ULBP2-Fc. The experiment is described as above.
Experiment [26] has as its target T4, ULBP1-Fc. The experiment is described as above.
Experiment [27] has as its target T6, ULBP4-Fc. Described as above.
Experiment [28] has as its target MICwed-Fc. The description is as above.
Experiment [29] addresses T5, ULBP3-Fc. The experiment is described as above.
The target of experiment [30] is T8, MICA-Fc. Described as above.

Residue numbers refer to the chain shown, from its start. Names and notes keep the numbering of the source.

B1: human NKG2D-Fc (Fc fusion)
chain: FLNSLFNQEVQIPLTESYCGPCPKNWICYKNNCYQFFDESKNWYESQASCMSQNASLLKVYSKEDQDLLKLVKSYHWMGLVHIPTNGSWQWEDGSILSPNLLTIIEMQKGDCALYASSFKGYIENCSTPNTYICMQRTV
notes: also called natural NKG2D-Fc; not shown: Fc part
Turning to B1, in [1], the binding result is “binds”.

B2: His-avitag-natural NKG2D (receptor)
chain: EPHHHHHHGLNDIFEAQKIEWHENSLFNQEVQIPLTESYCGPCPKNWICYKNNCYQFFDESKNWYESQASCMSQNASLLKVYSKEDQDLLKLVKSYHWMGLVHIPTNGSWQWEDGSILSPNLLTIIEMQKGDCALYASSFKGYIENCSTPNTYICMQRTV
modifications: biotin on the avitag sequence (BirA)
notes: also called natural NKG2D ectodomain; wild type NKG2D
One may read the EC50 (read off the curve) as the concentration needed to bring the measured effect to its halfway point. A higher EC50 (read off the curve) goes with a need for much substance. Regarding B2, the binding result in experiment [2], in experiment [3], in experiment [4], in experiment [6] and in experiment [7] was “binds” throughout. Also, the “EC50 (read off the curve)” value in [5] is approximately 100 nM.

B3: Y199A NKG2D ectodomain (receptor)
chain: B2 chain with Y143A
modifications: biotin on the avitag sequence (BirA)
notes: Expressed with His-avitag; also called non-natural NKG2D mutant Y199A
For B3, the binding result in experiment [8], in experiment [9], in [10], in experiment [11], in experiment [12] and in experiment [13] was “no binding (tested: 2000 nM)” throughout. Also, the binding result in [14] and in [15] was “no binding (tested: 2000 nM)” throughout.

B4: Y152A plus Y199A NKG2D ectodomain (receptor)
chain: B2 chain with Y96A, Y143A
modifications: biotin on the avitag sequence (BirA)
notes: Expressed with His-avitag; also called non-natural NKG2D double mutant Y152A and Y199A
As for B4, the binding result in experiment [16], in experiment [17], in experiment [18], in experiment [19], in experiment [20] and in experiment [21] was “no binding (tested: 2000 nM)” in each case. For the same molecule, the binding result in experiment [22] and in [23] was “no binding (tested: 2000 nM)” throughout.

B5: Y152A NKG2D ectodomain (receptor)
chain: B2 chain with Y96A
modifications: biotin on the avitag sequence (BirA)
notes: Expressed with His-avitag; also called non-natural NKG2D mutant Y152A; Y152A mutant NKG2D ectodomain
With B5, the binding result in experiment [24], in experiment [25], in [26], in experiment [27], in experiment [28] and in [29] was “no binding (tested: 2000 nM)” each time. For the same molecule, in [30], the binding result is “no binding (tested: 2000 nM)”.
